In paper PMC10655381 one finds stoichiometry N data, which are given here for 1 substance.

One may read the stoichiometry N as the number of molecules, sites or subunits per partner or assembly.

For the assay, the target named is recombinant glycerol dehydratase 2eGDHt αβγ heterotrimer from Klebsiella pneumoniae 2e (Klebsiella pneumoniae 2e) (UniProt Q59476). Briefly: native gel or EMSA; Native-PAGE of purified recombinant 2eGDHt; heterotrimer to dimer of heterotrimers. Background: A gel shift assay detects complexes by their altered migration in electrophoresis.

On to “recombinant glycerol dehydratase 2eGDHt αβγ heterotrimer from Klebsiella pneumoniae 2e (from UniProt Q59476 1-555; A6TE99 1-194; Q59475 1-141) (complex)”, for which the stoichiometry N is 2.
